Data: patent EP3574020B1 (The University of British Columbia, dated 2024)

T1: cyclo(CGHHQKG) cyclic peptide, conjugated to BSA (also: conjugated to BSA, site not given here)
T1 construct: BSA is the carrier used for screening; also called cyclopeptide; Cyclo-BSA
T1 peptide: cyclo(CGHHQKG)


Legend:
[1] = biological target: T1, cyclo(CGHHQKG) cyclic peptide, …; experiment: SPR; immobilized antibody pre-exposed to the cyclic peptide
[2] = biological target: T2, commercially-prepared stable A-beta42 Oligomers (SynAging) (human); experiment: ProteOn biosensor; antibody captured with anti-mouse IgG or amine-coupled, AbO dilutions injected
T2 construct: Bought oligomer preparation; also called AbO; SynAging AbO

[3] = biological target: T1, cyclo(CGHHQKG) cyclic peptide, …; experiment: ProteOn biosensor; antibody amine-coupled to GLH chip, cyclo-BSA 9 nM to 111 pM
[4] = biological target: T1, cyclo(CGHHQKG) cyclic peptide, …; experiment: single cycle Biacore analysis

T2 sequence (peptide, as listed by the source): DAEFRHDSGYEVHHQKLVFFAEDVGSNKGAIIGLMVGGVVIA

| Binder | binding result [1] | Kd [2] | Kd [3] | Kd [4] |
| --- | --- | --- | --- | --- |
| Humanized antibody of 301-17 (VH2 Vk5), human IgG4 (S241P hinge variant) / kappa (antibody, V domains shown, also called hu301-17) VH: QVQLVQSGAEVKKPGASVKMSCKASGYSFTSYWINWVKQRPGQGLEWIGDVHPGRGVSTYNAKFKSRATLTLDTSISTAYMELSSLRSEDTAVYYCSRSHGNTYWFFDVWGQGTTVTVSS VL: DVLMTQSPLSLPVTLGQPASISCRSSQSIVHSNGNTYLEWYQQRPGQSPRLLIYKVSNRFSGVPDRFSGSGSGTDFTLKISRVEAEDVGVYYCFQGSHVPFTFGQGTKLEIKR | binds | – | – | – |
| Recombinant 301-17 IgG2a (murine IgG2a backbone) (antibody) heavy: QVQLQQPGAELVKPGASVKMSCKASGYSFTSYWINWVKQRPGQGLEWIGDVHPGRGVSTYNAKFKSKATLTLDTSSSTAYMQLSSLTSEDSAVYYCSRSHGNTYWFFDVWGAGTTVTVSSAKTTAPSVYPLAPVCGDTTGSSVTLGCLVKGYFPEPVTLTWNSGSLSSGVHTFPAVLQSDLYTLSSSVTVTSSTWPSQSITCNVAHPASSTKVDKKIEPRGPTIKPCPPCKCPAPNLLGGPSVFIFPPKIKDVLMISLSPIVTCVVVDVSEDDPDVQISWFVNNVEVHTAQTQTHREDYNSTLRVVSALPIQHQDWMSGKEFKCKVNNKDLPAPIERTISKPKGSVRAPQVYVLPPPEEEMTKKQVTLTCMVTDFMPEDIYVEWTNNGKTELNYKNTEPVLDSDGSYFMYSKLRVEKKNWVERNSYSCSVVHEGLHNHHTTKSFSRTPGK light: DVLMTQTPLSLPVSLGDQASISCRSSQSIVHSNGNTYLEWYLQKPGQSPKLLIYKVSNRFSGVPDRFSGSGSGTDFTLKISRVEAEDLGVYYCFQGSHVPFTFGSGTKLEIKRADAAPTVSIFPPSSEQLTSGGASVVCFLNNFYPKDINVKWKIDGSERQNGVLNSWTDQDSKDSTYSMSSTLTLTKDEYERHNSYTCEATHKTSTSPIVKSFNRNEC | – | 16.2 to 19.5 nM | ~0.017 nM | – |
| Chimeric 301-17 antibody (VH0 Vk0), mouse variable regions on human IgG4 / kappa (antibody, also called V0H0 and V0k0) heavy: not shown light: DVLMTQTPLSLPVSLGDQASISCRSSQSIVHSNGNTYLEWYLQKPGQSPKLLIYKVSNRFSGVPDRFSGSGSGTDFTLKISRVEAEDLGVYYCFQGSHVPFTFGSGTKLEIKRTVAAPSVFIFPPSDEQLKSGTASVVCLLNNFYPREAKVQWKVDNALQSGNSQESVTEQDSKDSTYSLSSTLTLSKADYEKHKVYACEVTHQGLSSPVTKSFNRGEC | – | – | – | ~0.02 nM |
| 301-17 mouse monoclonal antibody, hybridoma-purified IgG3 (antibody, V domains shown, mouse IgG3 / kappa; also called mu301-17) VH: QVQLQQPGAELVKPGASVKMSCKASGYSFTSYWINWVKQRPGQGLEWIGDVHPGRGVSTYNAKFKSKATLTLDTSSSTAYMQLSSLTSEDSAVYYCSRSHGNTYWFFDVWGAGTTVTVSSATTTAPS VL: DVLMTQTPLSLPVSLGDQASISCRSSQSIVHSNGNTYLEWYLQKPGQSPKLLIYKVSNRFSGVPDRFSGSGSGTDFTLKISRVEAEDLGVYYCFQGSHVPFTFGSGTKLEIKRADA | – | 26.9 nM | – | 0.4 nM |
